This passage reports fold change in binding affinity (against CBLB502) results from article PMC3406927.

Experiment [1] addresses drTLR5-ECD (zebrafish, Danio rerio). Briefly: fluorescence polarisation.
The target of experiment [2] is TLR5-N14VLR (zebrafish, Danio rerio | hagfish) (UniProt B3DIN1). Briefly: fluorescence polarisation. (Fluorescence polarisation rises when a labelled molecule tumbles more slowly, as on binding a larger partner.)

As to “CBLB502-ΔD0 (from UniProt Q06971 1-505) (ligand)”, the fold change in binding affinity (against CBLB502) in experiment [1] and in experiment [2] was 2 to 3 fold each time.
